From the supplement of paper PMC9233669
This sample holds only a part of the variants without activity.

Legend:
[1] = system: biotinyl-Phe-oxazolone; test: self-aminoacylation, catalytic enhancement (BFO) (fold over background); higher = more active; k-Seq, kA / k0A0; sequences stand for … in GGGAAUGGAUCCACAUCUACGAAUUC…UUCACUGCAGACUUGACGAAGCUG
Outline: (§1)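 Mutagenized RNA pools with a 21-nt variable region (0.43 μM) reacted with each biotinyl-aminoacyl-oxazolone at 2–1250 μM. Reactions ran in 50 μL HEPES/NaCl/KCl/MgCl2/CaCl2 buffer with 5% acetonitrile, pH 6.9–7.0, for 90 minutes at room temperature. Streptavidin-captured RNA was quantified by triplicate qPCR and Illumina sequencing, and per-sequence fraction reacted was fit to a pseudo-first-order model with 1000 bootstraps. Catalytic enhancement is median kA divided by the uncatalyzed rate, the low-activity peak of a bimodal Gaussian fit.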

[2] = system: biotinyl-Ile-oxazolone; test: self-aminoacylation, catalytic enhancement (BIO) (fold over background); higher = more active; k-Seq, kA / k0A0; sequences stand for … in GGGAAUGGAUCCACAUCUACGAAUUC…UUCACUGCAGACUUGACGAAGCUG
Outline: as §1

[3] = system: biotinyl-Leu-oxazolone; test: self-aminoacylation, catalytic enhancement (BLO) (fold over background); higher = more active; k-Seq, kA / k0A0; sequences stand for … in GGGAAUGGAUCCACAUCUACGAAUUC…UUCACUGCAGACUUGACGAAGCUG
Outline: as §1

[4] = system: biotinyl-Trp-oxazolone; test: self-aminoacylation, catalytic enhancement (BWO) (fold over background); higher = more active; k-Seq, kA / k0A0; sequences stand for … in GGGAAUGGAUCCACAUCUACGAAUUC…UUCACUGCAGACUUGACGAAGCUG
Outline: as §1

[5] = system: biotinyl-Val-oxazolone; test: self-aminoacylation, catalytic enhancement (BVO) (fold over background); higher = more active; k-Seq, kA / k0A0; sequences stand for … in GGGAAUGGAUCCACAUCUACGAAUUC…UUCACUGCAGACUUGACGAAGCUG
Outline: as §1

[6] = system: biotinyl-Met-oxazolone; test: self-aminoacylation, catalytic enhancement (BMO) (fold over background); higher = more active; k-Seq, kA / k0A0; sequences stand for … in GGGAAUGGAUCCACAUCUACGAAUUC…UUCACUGCAGACUUGACGAAGCUG
Outline: as §1

Sequence | self-aminoacylation [1] | self-aminoacylation [2] | self-aminoacylation [3] | self-aminoacylation [4] | self-aminoacylation [5] | self-aminoacylation [6]
AUUCACCUAGGUCAUGGAGUG [Fam2.2 aminoacylation ribozyme variant] | 7.91 | 2.31 | 4.09 | 3.68 | 2.49 | 3.29
AUUCACCUAGGUCAUGGGAUG [Fam2.2 aminoacylation ribozyme variant] | 0.397 | 0.596 | 0.611 | 0.315 | 0.657 | 0.66
AUUCACCUAGGUCAUGGUGUG [Fam2.2 aminoacylation ribozyme variant] | 0.397 | 0.936 | 0.994 | 0.519 | 0.932 | 0.846
AUUCACCUAGGUCAUGUGGUG [Fam2.2 aminoacylation ribozyme variant] | 20 | 2.18 | 3.91 | 2.98 | 2.1 | 2.95
AUUCACCUAGGUCAUUGGGAG [Fam2.2 aminoacylation ribozyme variant] | 0.946 | 1.15 | 1.07 | 1.16 | 0.991 | 1.05
AUUCACCUAGGUCCACGGGUG [Fam2.2 aminoacylation ribozyme variant] | 48.5 | 3.85 | 9.94 | 6.34 | 4.27 | 7.25
AUUCACCUAGGUCCUCGGAUG [Fam2.2 aminoacylation ribozyme variant] | 0.427 | 0.964 | 1.07 | 0.587 | 0.89 | 0.966
AUUCACCUAGGUCCUCGGGGG [Fam2.2 aminoacylation ribozyme variant] | 9.54 | 2.8 | 2.98 | 2.42 | 2.85 | 2.98
AUUCACCUAGGUCCUCGGGUG [Fam2.2 aminoacylation ribozyme variant] | 30.2 | 3.08 | 5.91 | 4.22 | 3.13 | 4.59
AUUCACCUAGGUCCUCGGGUU [Fam2.2 aminoacylation ribozyme variant] | 8.53 | 1.8 | 2.45 | 2.48 | 2.06 | 2.22
AUUCACCUAGGUCCUUGGGUG [Fam2.2 aminoacylation ribozyme variant] | 31.7 | 2.7 | 5.09 | 3.42 | 2.51 | 4.11
AUUCACCUAGGUCGUCGGCUG [Fam2.2 aminoacylation ribozyme variant] | 4.94 | 1.62 | 2.55 | 1.63 | 1.97 | 2.16
AUUCACCUAGGUCUGCGGGUG [Fam2.2 aminoacylation ribozyme variant] | 12.8 | 3.08 | 4.85 | 3.44 | 2.58 | 4.69
AUUCACCUAGGUGACCGGGUG [Fam2.2 aminoacylation ribozyme variant] | 23 | 4.8 | 5.29 | 6.82 | 4.19 | 3.84
AUUCACCUAGGUGAUCGGCUG [Fam2.2 aminoacylation ribozyme variant] | 9.04 | 1.77 | 1.98 | 1.67 | 1.66 | 1.74
AUUCACCUAGGUGAUCGGGUU [Fam2.2 aminoacylation ribozyme variant] | 9.06 | 1.85 | 2.59 | 1.06 | 1.88 | 1.89
AUUCACCUAGGUGAUCGGUUG [Fam2.2 aminoacylation ribozyme variant] | 3.17 | 0.875 | 0.93 | 1.03 | 0.921 | 0.928
AUUCACCUAGGUUAGCGGGUG [Fam2.2 aminoacylation ribozyme variant] | 19.7 | 2.55 | 2.9 | 3.43 | 2.22 | 2.98
AUUCACCUAGGUUAUCGCGUG [Fam2.2 aminoacylation ribozyme variant] | 20.7 | 2.09 | 3.29 | 3.11 | 2.64 | 3.16
AUUCACCUAGGUUAUCGGCUG [Fam2.2 aminoacylation ribozyme variant] | 4.24 | 1.45 | 1.79 | 1.44 | 1.57 | 1.73
AUUCACCUAGGUUAUCGGGUA [Fam2.2 aminoacylation ribozyme variant] | 13.3 | 2.02 | 3.54 | 3.37 | 2.49 | 2.55
AUUCACCUAGUUCAUCGAGUG [Fam2.2 aminoacylation ribozyme variant] | 1.17 | 0.949 | 1.31 | 1.25 | 1.04 | 1.21
AUUCACCUAGUUCAUCGGGCG [Fam2.2 aminoacylation ribozyme variant] | 5.7 | 1.95 | 1.96 | 2.88 | 1.93 | 2.19
AUUCACCUAUGUCAUCGGGGG [Fam2.2 aminoacylation ribozyme variant] | 6.23 | 1.5 | 1.93 | 1.58 | 1.38 | 2
AUUCACCUAUGUCAUCGGGUA [Fam2.2 aminoacylation ribozyme variant] | 1.14 | 1.55 | 2.41 | 1.89 | 1.79 | 1.96
AUUCACCUCGGUCAUCGGGCG [Fam2.2 aminoacylation ribozyme variant] | 19.5 | 2.49 | 3.62 | 2.32 | 3.43 | 3.37

Sequence | self-aminoacylation [1] | self-aminoacylation [2] | self-aminoacylation [3] | self-aminoacylation [4] | self-aminoacylation [5] | self-aminoacylation [6]
AUUCACCUCGGUCAUCGGGUG [Fam2.2 aminoacylation ribozyme variant] | 53.6 | 4.59 | 9.64 | 7.49 | 5.15 | 7.69
AUUCACCUCGGUCAUCUGGUG [Fam2.2 aminoacylation ribozyme variant] | 29.2 | 2.17 | 4.16 | 3.2 | 2.16 | 3.29
AUUCACCUCGGUCGUCGGGUG [Fam2.2 aminoacylation ribozyme variant] | 11.4 | 2.42 | 2.85 | 2.53 | 3.12 | 2.41
AUUCACCUCGUUCAUCGGGUG [Fam2.2 aminoacylation ribozyme variant] | 26.3 | 2.93 | 5.48 | 5 | 3.3 | 4.1
AUUCACCUGGGACAUCGGGUG [Fam2.2 aminoacylation ribozyme variant] | 55.4 | 4.15 | 6.71 | 5.11 | 4.3 | 7.06
AUUCACCUGGGCCAUCGGGUG [Fam2.2 aminoacylation ribozyme variant] | 35.7 | 4.03 | 6.53 | 4.74 | 5.03 | 6.2
AUUCACCUGGGUCAACGGGUG [Fam2.2 aminoacylation ribozyme variant] | 22.8 | 2.41 | 4.25 | 3.21 | 2.56 | 3.9
AUUCACCUGGGUCACCGGGUG [Fam2.2 aminoacylation ribozyme variant] | 22.4 | 3.43 | 5.41 | 5.36 | 2.97 | 4.54
AUUCACCUGGGUCAGCGGGUG [Fam2.2 aminoacylation ribozyme variant] | 36.7 | 4.33 | 6.66 | 4.72 | 4.26 | 5.26
AUUCACCUGGGUCAUCGGGGG [Fam2.2 aminoacylation ribozyme variant] | 21.4 | 4.25 | 5.65 | 3.71 | 4.1 | 4.26
AUUCACCUGGGUCAUCGGGUG [Fam2.2 aminoacylation ribozyme variant] | 67.8 | 8.95 | 23.2 | 18.2 | 10.4 | 20.2
AUUCACCUGGGUCAUCGGGUU [Fam2.2 aminoacylation ribozyme variant] | 17.4 | 4.39 | 9.06 | 7.09 | 5.13 | 6.89
AUUCACCUGGGUCAUCGGUUG [Fam2.2 aminoacylation ribozyme variant] | 3.76 | 1.25 | 1.4 | 1.62 | 1.44 | 0.904
AUUCACCUGGGUCAUCUGGUG [Fam2.2 aminoacylation ribozyme variant] | 21 | 2.18 | 3.46 | 2.99 | 2 | 2.83
AUUCACCUGUGUCAUCGGGUG [Fam2.2 aminoacylation ribozyme variant] | 28.1 | 5.71 | 15.7 | 8.96 | 6.51 | 10.8
AUUCACCUUGGUCAUAGGGUG [Fam2.2 aminoacylation ribozyme variant] | 1.15 | 0.995 | 1.59 | 1.05 | 1.16 | 1.21
AUUCACCUUGGUCAUCGGUUG [Fam2.2 aminoacylation ribozyme variant] | 0.347 | 0.9 | 0.855 | 0.806 | 1.06 | 0.844
AUUCACCUUGGUGAUCGGGUG [Fam2.2 aminoacylation ribozyme variant] | 23.8 | 3.1 | 4.24 | 5.35 | 3.7 | 3.12
AUUCACGAAGGUCAUCGGGUG [Fam2.2 aminoacylation ribozyme variant] | 89.6 | 5.12 | 11.3 | 8.81 | 6.74 | 10.5
AUUCACGGAGGUCAUCGGGUG [Fam2.2 aminoacylation ribozyme variant] | 65.1 | 4.28 | 9.33 | 7.23 | 6.35 | 7.36
AUUCACGUAAGUCAUCGGGUG [Fam2.2 aminoacylation ribozyme variant] | 148 | 9.9 | 20.4 | 13.3 | 10.4 | 18.3
AUUCACGUAGGACAUCGGGUG [Fam2.2 aminoacylation ribozyme variant] | 24.5 | 3.6 | 5.61 | 5.55 | 4.37 | 5.02
AUUCACGUAGGGCAUCGGGUG [Fam2.2 aminoacylation ribozyme variant] | 43.3 | 3.79 | 6.02 | 5.13 | 5.03 | 4.63
AUUCACGUAGGUCACCGGGUG [Fam2.2 aminoacylation ribozyme variant] | 62.5 | 5.08 | 8.29 | 7.15 | 5.08 | 7.45
AUUCACGUAGGUCAGCGGGUG [Fam2.2 aminoacylation ribozyme variant] | 16.1 | 2.48 | 3.04 | 2.71 | 2.48 | 2.52
